Assay results: publication PMC8446450, “Autosomal Recessive Cutis Laxa 1C Mutations Disrupt the Structure and Interactions of Latent TGFβ Binding Protein-4” (Frontiers in Genetics, 2021)

Tests used:
[1] = biological target: Latent TGFβ binding protein-4 (LTBP4S) C-terminal region, ARCL1C mutant C1186R (human); test: SPR; ProteOn, LTBP4 C-terminal constructs amine-coupled on GLC chip, fibrillin-1 PF3 injected 100-3.1 nM, 10 mM HEPES, 150 mM NaCl, pH 7.4, 0.005% Tween-20, 25°C; steady state (equilibrium) analysis
[2] = biological target: Tropoelastin (SHELdelta26A); test: BLI; OctetRED96, biotinylated tropoelastin on streptavidin biosensors, LTBP4 C-terminal constructs 375-23.4 nM, 10 mM HEPES, 150 mM NaCl, pH 7.4, 0.005% Tween-20, 25°C; steady state analysis
[3] = biological target: T1, Tropoelastin (SHELdelta26A) (biotin where immobilised on streptavidin biosensors (position not given)); test: BLI
T1 chain: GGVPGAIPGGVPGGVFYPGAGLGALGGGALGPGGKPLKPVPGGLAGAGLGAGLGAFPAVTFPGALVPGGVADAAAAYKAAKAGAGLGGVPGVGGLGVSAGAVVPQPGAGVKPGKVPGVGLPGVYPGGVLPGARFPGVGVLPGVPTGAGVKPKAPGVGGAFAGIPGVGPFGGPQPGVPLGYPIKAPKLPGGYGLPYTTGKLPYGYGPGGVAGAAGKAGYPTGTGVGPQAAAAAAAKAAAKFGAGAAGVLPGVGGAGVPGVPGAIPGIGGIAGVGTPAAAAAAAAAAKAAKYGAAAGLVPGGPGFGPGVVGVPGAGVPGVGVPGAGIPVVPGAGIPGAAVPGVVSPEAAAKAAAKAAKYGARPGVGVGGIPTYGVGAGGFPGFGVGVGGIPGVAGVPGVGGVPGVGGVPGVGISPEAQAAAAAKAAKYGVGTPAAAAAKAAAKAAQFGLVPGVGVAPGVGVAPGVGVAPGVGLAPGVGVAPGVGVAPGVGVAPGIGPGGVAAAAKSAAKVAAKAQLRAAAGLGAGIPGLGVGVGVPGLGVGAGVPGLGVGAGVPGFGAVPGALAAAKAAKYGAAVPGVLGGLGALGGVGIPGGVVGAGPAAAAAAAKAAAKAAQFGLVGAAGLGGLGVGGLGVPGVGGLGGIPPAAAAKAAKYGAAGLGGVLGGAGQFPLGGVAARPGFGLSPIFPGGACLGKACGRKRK

Fibrillin-1 PF3 fragment (from UniProt P35555 45-722) (domain or fragment)
Kd [1]: 40.2 nM

B1: Latent TGFβ binding protein-4 (LTBP4S) C-terminal region, ARCL1C mutant C1186R (domain or fragment)
chain: RECYFDTAAPDACDNILARNVTWQECCCTVGEGWGSGCRIQQRPGTETAEYQSLCPHGRGYLAPSGDLSLRRDVDECQLFRDQVCKSGVCVNTAPGYSCYCSNGYYYHTQRLECIDNDECADEEPACEGGRCVNTVGSYHCTCEPPLVLDGSQRRCVSNESQSLDDNLGVCWQEVGADLVCSHPRLDRQATYTECCCLYGEAWGMDCALCPAQDSDDFEALCNVLRPPAYSPPRPGGFGLPYEYGPDLGPPYQGLPYGPELYPPPALPYDPYPPPPGPFARREAPYGAPRFDMPDFEDDGGPYGESEAPAPPGPGTRWPYRSRDTRRSFPEPEEPPEGGSYAGSLAEPYEELEAEECGILDGCTNGRCVRVPEGFTCRCFDGYRLDMTRMACVDINECDEAEAASPLCVNARCLNTDGSFRCICRPGFAPTHQPHHCAPARPRA
Kd [2]: 154 nM | Kd [3]: 55.9 nM
